Reference: PMC4106346, “The Oligomeric States of the Purified Sigma-1 Receptor Are Stabilized by Ligands*” (The Journal of Biological Chemistry, 2014)
Positions count from the first letter of the chain named. Names and notes keep the numbering of the source.

B1: G91I MBP-4A-S1R (receptor, guinea pig, UniProt Q60492 1-223, looked up)
chain: MQWAVGRRWLWVALFLAAVAVLTQIVWLWLGTQNFVFQREEIAQLARQYAGLDHELAFSKLIVELRRLHPVHVLPDEELQWVFVNAGGWMIAMCLLHASLSEYVLLFGTALGSPRHSGRYWAEISDTIISGTFHQWREGTTKSEVFYPGETVVHGPGEATAVEWGPNTWMVEYGRGVIPSTLGFALADTVFSTQDFLTLFYTLRVYARALQLELTTYLFGQDP
notes: sigma-1 receptor (S1R), guinea pig, 223 amino acids, as m1 with G91I; also called G91I mutation; not shown: MBP with 4-Ala linker, N-terminal, kept
B2: G91L MBP-4A-S1R (receptor, guinea pig, UniProt Q60492 1-223, looked up)
chain: B1 chain with I91L
notes: sigma-1 receptor (S1R), guinea pig, 223 amino acids, as m1 with G91L; also called G91L mutation; not shown: MBP with 4-Ala linker, N-terminal, kept
B3: MBP-4A-S1R (guinea pig sigma-1 receptor fused to maltose-binding protein through a 4-Ala linker) (receptor, UniProt Q60492 1-223, looked up)
chain: B1 chain with I91G
notes: sigma-1 receptor (S1R), guinea pig, 223 amino acids; In detergent micelles (DDM); One preparation separates into a 6-8-mer, a tetramer and a monomer; also called nonmutated receptor; nonmutated fusion protein; source: preparative size exclusion chromatography; not shown: MBP with 4-Ala linker, N-terminal, kept
B4: H97A MBP-4A-S1R (receptor, guinea pig, UniProt Q60492 1-223, looked up)
chain: B1 chain with I91G, H97A
notes: sigma-1 receptor (S1R), guinea pig, 223 amino acids, as m1 with H97A; also called mutation H97A; not shown: MBP with 4-Ala linker, N-terminal, kept
B5: G88L MBP-4A-S1R (receptor, guinea pig, UniProt Q60492 1-223, looked up)
chain: B1 chain with G88L, I91G
notes: sigma-1 receptor (S1R), guinea pig, 223 amino acids, as m1 with G88L; Named only as one of the substitutions of Ile or Leu at Gly-87, Gly-88 and Gly-91; also called substitution of Leu at Gly-88; not shown: MBP with 4-Ala linker, N-terminal, kept
B6: G88I MBP-4A-S1R (receptor, guinea pig, UniProt Q60492 1-223, looked up)
chain: B1 chain with G88I, I91G
notes: sigma-1 receptor (S1R), guinea pig, 223 amino acids, as m1 with G88I; Named only as one of the substitutions of Ile or Leu at Gly-87, Gly-88 and Gly-91; also called substitution of Ile at Gly-88; not shown: MBP with 4-Ala linker, N-terminal, kept

Tests used:
[1] = biological target: the molecule itself; assay: SEC; analytical size exclusion chromatography, Yarra SEC-3000, 10 mM HEPES pH 7.2, 150 mM NaCl, 0.3 mM TCEP, 0.018% DDM, column at 20 °C; self-association in protein-detergent micelles
[2] = biological target: the molecule itself; assay: cross-linking; DSS (150 or 250 μM) on 5 μM isolated peak 1 (oligomer) of MBP-4A-S1R, 2 h at room temperature, with or without 10 μM BD-1047; SDS-PAGE
[3] = biological target: the molecule itself; assay: SEC-MALS; isolated peak 1 (largest oligomer) of MBP-4A-S1R; Superdex S200, 150 mM NaCl, 5 mM HEPES pH 7.2, 0.018% DDM
[4] = biological target: the molecule itself; assay: SEC-MALS; isolated intermediate oligomer (peak *) of MBP-4A-S1R; Superdex S200, 150 mM NaCl, 5 mM HEPES pH 7.2, 0.018% DDM

Row | Protein | stoichiometry N [1] | binding result [1] | also measured
1 | B1 | ~2 |  | 
2 | B2 | ~4 |  | 
3 | B3 |  |  | stoichiometry N [2]: > 4; stoichiometry N [3]: 6 to 8; stoichiometry N [4]: 4
4 | B4 |  | binds | 
5 | B5 |  | binds | 
6 | B6 |  | binds | 
